Drawing on patent US20220175921A1 (published 2022), this text covers EC50 for three molecules.

Test [1] concerns the target T1, cynomolgus GITR, membrane bound (on activated cynomolgus T cells).
T1 chain: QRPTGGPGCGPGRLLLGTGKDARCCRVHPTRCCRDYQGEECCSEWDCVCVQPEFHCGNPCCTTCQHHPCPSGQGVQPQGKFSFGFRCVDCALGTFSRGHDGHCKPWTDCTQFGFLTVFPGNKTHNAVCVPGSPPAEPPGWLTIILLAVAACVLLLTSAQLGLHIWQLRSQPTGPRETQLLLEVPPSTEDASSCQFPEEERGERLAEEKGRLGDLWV
In words: FACS. A general note: Flow cytometry measures light scatter and fluorescence of single cells or particles in a stream.

The target of test [2] is T2, human GITR, membrane bound (on activated human T cells or on 3A9-hGITR cells) (UniProt Q9Y5U5 26-241).
T2 chain: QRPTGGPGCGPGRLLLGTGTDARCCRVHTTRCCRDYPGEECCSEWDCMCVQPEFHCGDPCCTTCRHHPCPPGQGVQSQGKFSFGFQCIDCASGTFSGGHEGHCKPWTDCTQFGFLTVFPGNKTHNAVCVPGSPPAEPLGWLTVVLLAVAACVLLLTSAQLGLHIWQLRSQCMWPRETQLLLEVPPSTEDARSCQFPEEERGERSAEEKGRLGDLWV
In words: FACS.

B1: 3C3 (antibody, V domains shown)
VH: QVQLQQWGAGLLKPSETLSLTCAVYGGSFSGYYWTWIRQPPGKGLEWIGKINHSGNTNYNPSLKSRVTISVDTSKNQFSLKLSSVTAADTAVYYCARLGAFDAFDIWGQGTMVTVSS
VL: DIQMTQSPSSLSASVGDRVTITCRASQGISSWLAWYQQKPEKAPKSLIYAASSLQSGVPSRFSGSGSGTDFTLTISSLQPEDFATYYCQQYNSYPYTFGQGTKLEIKR
On to B1, for which, in test [1], the response was half-maximal at 142 nM (EC50).

B2: anti-GITR.g2 (antibody)
chain 1: QVQLVESGGGVVQPGRSLRLSCAASGFTFSSYGMHWVRQAPGKGLEWVAVIWYEGSNKYYADSVKGRFTISRDNSKNTLYLQMNSLRAEDTAVYYCARGGSMVRGDYYYGMDVWGQGTTVTVSSASTKGPSVFPLAPCSRSTSESTAALGCLVKDYFPEPVTVSWNSGALTSGVHTFPAVLQSSGLYSLSSVVTVPSSNFGTQTYTCNVDHKPSNTKVDKTVERKCCVECPPCPAPPVAGPSVFLFPPKPKDTLMISRTPEVTCVVVDVSHEDPEVQFNWYVDGVEVHNAKTKPREEQFNSTFRVVSVLTVVHQDWLNGKEYKCKVSNKGLPAPIEKTISKTKGQPREPQVYTLPPSREEMTKNQVSLTCLVKGFYPSDIAVEWESNGQPENNYKTTPPMLDSDGSFFLYSKLTVDKSRWQQGNVFSCSVMHEALHNHYTQKSLSLSPGK
chain 2: not shown
For B2, it took 0.277 nM to reach a half-maximal effect in test [2] (EC50).

B3: anti-GITR.g2.g1.1f (antibody)
chain 1: QVQLVESGGGVVQPGRSLRLSCAASGFTFSSYGMHWVRQAPGKGLEWVAVIWYEGSNKYYADSVKGRFTISRDNSKNTLYLQMNSLRAEDTAVYYCARGGSMVRGDYYYGMDVWGQGTTVTVSSASTKGPSVFPLAPCSRSTSESTAALGCLVKDYFPEPVTVSWNSGALTSGVHTFPAVLQSSGLYSLSSVVTVPSSNFGTQTYTCNVDHKPSNTKVDKTVERKCCVECPPCPAPPVAGPSVFLFPPKPKDTLMISRTPEVTCVVVDVSHEDPEVKFNWYVDGVEVHNAKTKPREEQYNSTYRVVSVLTVLHQDWLNGKEYKCKVSNKALPSSIEKTISKAKGQPREPQVYTLPPSREEMTKNQVSLTCLVKGFYPSDIAVEWESNGQPENNYKTTPPVLDSDGSFFLYSKLTVDKSRWQQGNVFSCSVMHEALHNHYTQKSLSLSPG
chain 2: not shown
For B3, in test [2], the EC50 is 0.163 nM.

Usually EC50 stands for the concentration at which the effect is half-maximal. Low values mean higher potency in that assay, high ones lower potency in that assay.
